{"source": "paper PMC9394474", "about": "(2022)", "key": {"[1]": {"target": "T1, human hisTRIM7- (human, UniProt Q9C029 342-511)", "assay": "ITC"}, "[2]": {"target": "T1, human hisTRIM7-", "assay": "ITC", "remark": "listed apart in the source"}}, "note": "Where two headings read alike, the source gives them in different places. Ends that are not written are not given here."}
{"binder": "DNIKKKLDTYLQ", "note": "[rbGYG1 322-333 peptide]", "values": [{"measurement": "Kd", "setting": "[1]", "result": 21.1, "unit": "µM"}]}
{"binder": "Ac-Leu-Gln", "note": "[N-terminal acetylated LQ]", "values": [{"measurement": "Kd", "setting": "[2]", "result": 144, "unit": "µM"}]}
